In paper PMC5686067:
One block for each substance: values may come before it.

Columns and labels:
[1] = molecular target: sNlpI (soluble NlpI without its lipoprotein signal peptide) (E. coli) (UniProt P0AFB1); assay: AUC; sedimentation velocity, absorbance optics, 20 mM Tris-HCl pH 8.0, 100 mM NaCl, 2 mM DTT, 20 °C, c(s) model in Sedfit
[2] = molecular target: sNlpI (soluble NlpI without its lipoprotein signal peptide) (E. coli) (UniProt P0AFB1); assay: SEC-MALS; ENrich SEC 650 column, 20 mM Tris-HCl pH 7.5, 200 mM NaCl, 2 mM DTT, 0.02% NaN3, 240-360 µg protein injected
[3] = molecular target: Prc (full-length, C-terminal His-tag) (E. coli) (UniProt P23865)
[4] = molecular target: sMepS-6×His-C (soluble MepS without its lipoprotein signal peptide, C-terminal His-tag) (E. coli) (UniProt P0AFV4); assay: ITC; iTC200, 20 °C, 20 mM HEPES pH 7.5, 300 mM NaCl, 2 mM 2-mercaptoethanol; 23 µM sMepS or Prc in the cell, 230 µM sNlpI (alone or with equimolar Prc) in the syringe; one binding site model
sMepS-6×His-C (soluble MepS without its lipoprotein signal peptide, C-terminal His-tag) (E. coli), sequence (P0AFV4 28-188 limits assumed): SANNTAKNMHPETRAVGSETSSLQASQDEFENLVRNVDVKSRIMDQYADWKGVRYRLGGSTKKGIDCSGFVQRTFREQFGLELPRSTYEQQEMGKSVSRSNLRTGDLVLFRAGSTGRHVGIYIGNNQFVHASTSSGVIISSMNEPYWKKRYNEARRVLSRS

sNlpI (soluble NlpI without its lipoprotein signal peptide) (E. coli), sequence (P0AFB1 20-294): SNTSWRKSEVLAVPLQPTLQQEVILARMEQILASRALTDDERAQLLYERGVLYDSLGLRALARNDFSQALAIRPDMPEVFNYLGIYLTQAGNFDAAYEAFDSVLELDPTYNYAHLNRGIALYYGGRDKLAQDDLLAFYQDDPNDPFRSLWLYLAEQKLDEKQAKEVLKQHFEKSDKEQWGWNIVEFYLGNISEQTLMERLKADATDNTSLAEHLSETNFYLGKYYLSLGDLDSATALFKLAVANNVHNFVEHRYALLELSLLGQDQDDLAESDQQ
Prc (full-length, C-terminal His-tag) (E. coli), sequence (P23865 23-682 limits assumed): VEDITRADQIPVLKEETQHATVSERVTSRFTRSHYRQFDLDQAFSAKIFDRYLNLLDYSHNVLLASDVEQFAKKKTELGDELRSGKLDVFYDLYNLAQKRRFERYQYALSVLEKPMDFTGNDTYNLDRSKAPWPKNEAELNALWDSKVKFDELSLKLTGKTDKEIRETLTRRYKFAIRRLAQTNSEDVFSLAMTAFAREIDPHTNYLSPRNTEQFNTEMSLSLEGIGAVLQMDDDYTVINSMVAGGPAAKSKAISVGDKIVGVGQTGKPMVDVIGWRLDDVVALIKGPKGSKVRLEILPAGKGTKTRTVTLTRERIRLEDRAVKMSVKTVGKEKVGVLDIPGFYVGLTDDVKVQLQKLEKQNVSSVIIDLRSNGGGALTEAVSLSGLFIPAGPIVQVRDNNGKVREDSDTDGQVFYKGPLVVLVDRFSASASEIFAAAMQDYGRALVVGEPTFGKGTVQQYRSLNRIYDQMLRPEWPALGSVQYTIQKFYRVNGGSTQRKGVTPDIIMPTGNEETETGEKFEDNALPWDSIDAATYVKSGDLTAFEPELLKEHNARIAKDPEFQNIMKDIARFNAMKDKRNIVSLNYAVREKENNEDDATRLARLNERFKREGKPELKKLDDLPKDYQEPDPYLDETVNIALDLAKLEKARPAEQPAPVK

stoichiometry N (Prc per sNlpI (printed 2:2)) [1]: 1
stoichiometry N (Prc per sNlpI (printed 2:2)) [2]: 1
Substance: Prc (full-length, C-terminal His-tag) (from UniProt P23865 23-682) (enzyme)

specific degradation activity of Prc against MepS with sNlpI-QM (nmol min^−1 per mg) [3]: 0.98
Substance: sNlpI-QM (D113A/E117A/D120/E124A quadruple mutant) (from UniProt P0AFB1 20-294) (natural protein)

Kd [4]: 2.09 µM
Substance: sNlpI-Prc complex (from UniProt P0AFB1 20-294; P23865 23-682)
